Results on one substance are retold here after doi:10.1101/2022.01.09.475535.

The experiment deals with SF3B1 N-terminal region, residues 147-462 (SFB1^147-462) (human) (UniProt O75533). In words: ITC. For orientation: ITC needs no label: the signal is the heat of the interaction.
Chain of SF3B1 N-terminal region, residues 147-462 (SFB1^147-462) (human) (O75533 147-462): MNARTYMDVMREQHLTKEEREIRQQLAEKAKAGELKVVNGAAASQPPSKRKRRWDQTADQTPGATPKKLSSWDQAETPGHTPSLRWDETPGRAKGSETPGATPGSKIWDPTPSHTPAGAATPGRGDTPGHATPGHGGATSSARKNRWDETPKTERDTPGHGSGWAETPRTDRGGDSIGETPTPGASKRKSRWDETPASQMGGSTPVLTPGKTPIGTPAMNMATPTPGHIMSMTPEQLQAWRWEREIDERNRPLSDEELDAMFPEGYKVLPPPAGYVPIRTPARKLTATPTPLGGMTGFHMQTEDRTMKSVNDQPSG

With “U2AF2^12UL (nearly full-length U2AF2, residues 141-471) (domain or fragment)”, the stoichiometry N (U2AF2^12UL per SF3B1 ULM region) turned out to be 2.
